Results from the supplement of paper PMC12042874.
± gives the uncertainty stated by the source.

Assay: amyloid nucleation score (Sup35N fusion, yeast selection) (log enrichment); library NNK3; higher = more nucleation; inactive = no reads after selection
Summary of the method: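 The nucleation score is the log enrichment of output over input reads, calculated with DiMSum and centred on the mode score of non-aggregating sequences. Sequences with under 100 input reads were excluded. Reads came from Illumina sequencing of plasmid inserts from psi-negative yeast expressing Sup35N fused to peptides of 20 random codons, induced 24 hours with 100 μM copper sulfate and grown 7 days at 30°C without adenine and uracil.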

Row | Substance | amyloid nucleation score
1 | FFISDVGETC | inactive
2 | KGLVLAYILSRSVFERFKGG | inactive
3 | HNLTNLVSILGNAS | inactive
4 | FYSTAMCGED | inactive
5 | CKSIPWVFYWFLLLYGYL | inactive
6 | KVRRGQLKIRS | inactive
7 | QFSRWI | inactive
8 | CRINEWLGIGNSVSSSDHMG | inactive
9 | YLNNWMSWRRSLRRHIEVVR | inactive
10 | YRRAWRTIILKCTCLNQHV | 0.2 ± 0.42
11 | DECMARLNDWEGYAKD | inactive
12 | AIDLKLAKSEWGWSALGWFL | inactive
13 | FVLIIYLLACSEMLFVFKEV | inactive
14 | TLLLAMNDVTSRLL | inactive
15 | MVQNLQNRYGSWSCKFGFQR | inactive
16 | SRFYTL | inactive
17 | YSFSNVLVLGSTGPGTSSQA | inactive
18 | VGNYINVANMYSWGVIIRND | 2.39 ± 0.072
19 | GPGNMAMNVRAVKSGYHIAG | inactive
20 | MYLVG | inactive
21 | PDWVVPDGGIVTGIVGWCSG | inactive
22 | VDVVLGMSIG | inactive
23 | LFLGLIVVGTVLNELSMTNA | inactive

Row | Substance | amyloid nucleation score
24 | GRGYSSSTLWVLGWFD | inactive
25 | ANCCYPDLSCYVLYCGSSCL | 2.41 ± 0.076
26 | VVMMFVVIYIYALRRPY | 0.143 ± 0.25
27 | FERDVFDQYEVVQWGARGDG | inactive
28 | NVGWIWPYM | inactive
29 | YRDCISEGLKLSNWNELLGK | inactive
30 | LTMVWDNIAMYMHWHMTTPI | inactive
31 | IEWLI | inactive
32 | LINNSEASLIHYIYGRGNVQ | -0.664 ± 1.9
33 | YFSVLSESVSHSDVFRS | inactive
34 | FFSIT | inactive
35 | HFIASRGSGNLKVAFTDSQT | 1.23 ± 0.1
36 | VTYNTSSGRVYGTGHNWFQG | inactive
37 | EFAEMHTAVLVERISSKVII | inactive
38 | VYIFLNEEPRVN | inactive
39 | SFSSFVFTMEALASAVSTHH | inactive
40 | VCYKPFTSVYLVCTYHLFKS | inactive
41 | IFHFAATHEWYIMYYIDGSP | inactive
42 | LPSVDVRKTI | inactive
43 | LKVKLANR | inactive
44 | SGFYSLIVYNGFERALFVGS | inactive
45 | LFEPVIEILI | inactive
46 | CTVGIYLLNLC | 2.45 ± 0.084

Row | Substance | amyloid nucleation score
47 | VHFKRVEKG | inactive
48 | FWGFPRKSYADMMGSTRGSA | inactive
49 | FYKVYSVRLEHFCKCGIECN | inactive
50 | GGSSYTYHNSVDLLDWFCYV | 1.23 ± 0.11
51 | MSENLDKLKTFPPALE | inactive
52 | RANESTLM | inactive
53 | SVNFELYDMITRC | inactive
54 | LVFRIN | inactive
55 | YALVVR | inactive
56 | FMGTRTKLMALVYQEELSRS | inactive
57 | DVGMGRHGKAMK | inactive
58 | TKHPLYM | inactive
59 | GYWGTLSERPYTELIAGTSI | inactive
60 | AWELEKTTYRRGRAIVVHTP | inactive
61 | WLGRTATQFNIC | inactive
62 | YNMNVFAGGCAMCMWISRLF | 2.61 ± 0.074
63 | MVSLHYVI | inactive
64 | QSLLSSLLGSYSRLEKLNVD | inactive
65 | RHREAGEATTSFNFMRMSGP | inactive
66 | RWLFRSWPGRRMA | inactive
67 | VCSFDMRDLQKTE | inactive
68 | LSTQNRISASREMMDTDILG | 0.8 ± 0.13
69 | SGKGKCVYNVLRQGFFSKMS | inactive

Row | Substance | amyloid nucleation score
70 | FALSVVQG | inactive
71 | KVFMGRCCWLCSPY | 1.42 ± 0.1
72 | FSLRVGMKVHISKIRLGCCK | inactive
73 | GTYFSCVYGTKKL | inactive
74 | ISVRFLCNYCRRVYIRRCAV | inactive
75 | IIDYRDQRVLESLRFYVLCS | inactive
76 | IESIH | inactive
77 | VGESDKLHFAH | inactive
78 | VCNQS | inactive
79 | HSAYVVKWSSRTTPKFFSLW | inactive
80 | TIFVVCIRIFVWFLCYGSDP | 0.207 ± 0.23
81 | ERGGSTFCSTYFTVLKHRSG | inactive
82 | TSSNRVLVIPVELMIPWRF | -0.299 ± 1.1
83 | KRLQWMYYL | inactive
84 | IILQNFPNRKYMCLGAKMAS | inactive
85 | IVTHSMSSAHINRMNSRQ | inactive
86 | GGSEGQSVPAC | -0.241 ± 1.5
87 | RTSEPKTAHIMNEAIRRC | inactive
88 | QMEKHLRAASVSVCTSQSPV | inactive
89 | MGPRQKCALIATRKCQSVYL | -0.334 ± 1.1
90 | VKWWGAES | inactive
91 | STVKVSLYQNQYPNGFNS | 1.66 ± 0.089
92 | GVFERR | inactive

Row | Substance | amyloid nucleation score
93 | NPIYDSQLPATSCMQAFNAF | inactive
94 | VVICILQLHQYFFNYVH | 2.11 ± 0.05
95 | SKLHAE | inactive
96 | WMHRAYWLSGVCRVLQVTNL | inactive
97 | SGKILQRPLSWLSCVMQVES | inactive
98 | FWYFYSKEFTRQDLVDLNVM | inactive
99 | SLLMYCRNTVSMSNNLSRHR | 1.39 ± 0.11
100 | WWPLSLGNNVGPLHCRSRWE | inactive
101 | TLIHGGFTYLDQWKDETCPQ | inactive
102 | AIEQSLDWF | inactive
103 | LRSLLNQVMSYSMYILYNSQ | inactive
104 | SSFNIPMPSNYPKMIDLLFT | inactive
105 | LQGVFRMSQISG | inactive
106 | IYLYYGRTYSTFLWEV | 0.762 ± 0.12
107 | MMNGVGAWASFGLLNNYGGN | 0.291 ± 0.29
108 | HFLHYRPTGNHRLFWIRKDY | inactive
109 | EVGLRSLMFHSGQGIRMYNY | inactive
110 | SYLYLCRIKVDLPFWSDRLV | inactive
111 | LYDCRRGNLVTSCWNKCCLP | inactive
112 | DSGVSEQWGGGIELILSWCL | inactive
113 | GPFVSFYFVFTRFNQTSLGF | 1.57 ± 0.066
114 | SDHLQ | inactive
115 | VYSLFKVELISILGRMKITK | inactive

Row | Substance | amyloid nucleation score
116 | TKCTYKLGYTLYTGVKDVVR | inactive
117 | REMFASPSIGTALRR | inactive
118 | YREVYLNRRLERL | inactive
119 | HVSQTWLGRGADSGHWPRQG | 0.325 ± 0.46
120 | LSLCRNKSIKWVFSLMEIL | inactive
121 | FDSDRCIMCLTHLWILWGLR | inactive
122 | CFRLPCVQESVPDKVLLTGS | inactive
123 | PSHPVPLFHE | inactive
124 | KDSRSCLSFL | inactive
125 | FSNVRDFGFGKDY | inactive
126 | PNLMLPCTSGRELMKVSNVL | inactive
127 | VQWSVSFLSVVGVPWYRRLV | inactive
128 | YSNWLTSRNYTNLLLL | inactive
129 | NSQKVIYKPFEAIYVTGTLT | inactive
130 | IALTWDSVIYSTYLGVNFLT | 0.627 ± 0.23
131 | FWSSFAMRAYSVIWYTLSTC | inactive
132 | QVYGINLGSTGNEARYAVRD | inactive
133 | MYVSV | inactive
134 | LYLYSWFC | inactive
135 | SDFAIWKDFDG | 1.21 ± 0.1
136 | YWKRAGPQFGVPDSWTPSGP | inactive
137 | KNSTWMSESVNNRFFIQVGA | inactive
138 | RWELGIQALVR | inactive

Row | Substance | amyloid nucleation score
139 | PRPSYWHRYSWSTTIVGGIS | inactive
140 | HGIRYTCWRWECSNVGGSSS | inactive
141 | PLSVAFYGVTIR | 0.056 ± 0.19
142 | IVSYSGRNRDAHLKSS | inactive
143 | NFWVIPQ | inactive
144 | AWFVEKLLCDLHSPSAVGAG | -0.565 ± 1.5
145 | ELLGGLSLLGMSIFVLLSSL | inactive
146 | YIYRKCVD | inactive
147 | VRSTFNCITLRTLAIRSFYH | inactive
148 | HTTALIGANDSA | 0.024 ± 0.46
149 | NVSRRGC | inactive
150 | FGTGDMCKQCRHDVVRHSCL | inactive
151 | PQIVFRFDNIDQ | inactive
152 | SVDFVIPGSVKSVRFVVELV | inactive
153 | HTLRWE | inactive
154 | GVSYSLCLLIGLNRIRMGMV | inactive
155 | NGMGKRGQRSEESISQRSTG | inactive
156 | VCANLSWPFLSNTLLFVCLG | inactive
157 | IVRFNSLHYFWETDKTI | inactive
158 | SVWESHVWHAHTQI | inactive
159 | RCDKIWQASVMGSDIRDL | inactive
160 | KLFVVHSREGEFIFSI | inactive
161 | QVFSN | inactive
